# According to the supplement of paper PMC12042874:
# ± gives the uncertainty stated by the source.
# Experiment: amyloid nucleation score (Sup35N fusion, yeast selection) (log enrichment); library NNK3; higher = more nucleation; inactive = no reads after selection
# In short: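 Psi-negative yeast expressed Sup35N fused to peptides of 20 random codons. They were induced 24 hours with 100 μM copper sulfate, grown 7 days at 30°C without adenine and uracil, and their plasmid inserts from input and output were Illumina-sequenced. The nucleation score is the DiMSum log enrichment of output over input reads, centred on the mode score of non-aggregating sequences. Sequences with under 100 input reads were excluded.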
row,Substance,amyloid nucleation score
1,KKYFSVRWVTFWISRV,inactive
2,HYCRNTGC,inactive
3,IRFSKTLRVIVHGEGNGKLC,inactive
4,TLMGLESVSVYFSVGFLSVY,inactive
5,INFSCLLLKHLFRWVRPYLS,inactive
6,NAFGYSDVTVLVNSSLFESY,inactive
7,LYMFHCAFILSIFMFHTPVH,inactive
8,VAKFYRQ,inactive
9,PVNIVCTVNSLSGSYED,inactive
10,NFLFISYYVPGQCTV,inactive
11,CMCRLEGRTSDLCQESGSCC,-1.13 ± 1.5
12,LFVIVMSFLFGWFFYRNNYA,1.84 ± 0.099
13,QTDMWIDTWKVQPVWIEDEG,inactive
14,VGLSYVMINLGLPYLGRSAT,1.83 ± 0.082
15,SWSRYYCLYCG,2.97 ± 0.068
16,WNESAGGFRYFPEDAKCDRA,inactive
17,RVTDLRYIKMFVCIILCTGL,inactive
18,ALSHITDLQFLYSIVFQAHM,-0.674 ± 1.3
19,DGNLWMKSVCCWTKVFIELL,1.37 ± 0.12
20,FPPCTLSKLGSGYHLSNESS,inactive
21,IIRSGGNGLCSTKYLSSHFL,inactive
22,GWRAIWGNWNLQYRTS,inactive
23,VTGEYLRMAISGCRG,inactive

row,Substance,amyloid nucleation score
1,GLLLVRM,inactive
2,WLCPYARFIRNRSLLFCMFW,inactive
3,LSLLFALLAFEGVRASLSWG,inactive
4,RIYTYKRIYRIKVLITWNRL,inactive
5,ITRGTYRSPFSFNTRFESGS,inactive
6,GILSISQNKISVHPLLLLRI,inactive
7,PVHSFNLAIYMRLFHVWPVF,inactive
8,FAYLFPCMLLPRSLFAFRIN,inactive
9,SFIIVILYGDHALYFTYEAV,inactive
10,FLSDYGSC,inactive
11,RPCNVMEKRDSTNIVTRFT,inactive
12,GYYLLTVCGDWCSVSVHSGF,2.13 ± 0.078
13,MNYVIIFTWN,2.76 ± 0.071
14,IYLDFNASWLACNKLICLRN,1.01 ± 0.13
15,TSTFARDKVDFAVLSLF,inactive
16,YVRIQRMRFYSCEHWVHHIG,inactive
17,LHPYHYIWKMAHL,inactive
18,FWYSYQ,inactive
19,SEKPIFSHPNLIYENGIGWI,inactive
20,FEQNVGGLYWNKWSWGNLMR,inactive
21,VVCELCGSYYYIHCWDCNAS,2.75 ± 0.069
22,IRRHYAYCYNISTITVIAEI,inactive
23,NTFTPVFLTSKYSMRYGLIM,inactive

row,Substance,amyloid nucleation score
1,YTIMRNYGFLGARISRGSGS,inactive
2,RFNAFSPSPRWPRHFKTMYY,inactive
3,LLVSACA,inactive
4,CLATN,inactive
5,TSGSEDLLYGRDVVVYRSGC,inactive
6,DQGDRSFCSNLRLGYGVRAW,inactive
7,GTVLNSLPQQVGCLRLGSQG,inactive
8,SSSDCGNMNTTPRWAGGIGA,inactive
9,GNWCSG,inactive
10,PLKGDTVSYCGV,inactive
11,RHEHREGNGDVPLNV,inactive
12,DSPRGV,inactive
13,VGMRNTSLRCLVLIG,inactive
14,HWESGGKIWNKEYLAGLLPR,inactive
15,LFVMVQLCQL,0.797 ± 0.13
16,GLVWVN,inactive
17,LSTWSHPSCDRTYVNLKNIV,inactive
18,LFTELGSILF,inactive
19,CQKRETVFIKRD,inactive
20,VYSFTAKHRYSWFVCNDGVK,inactive
21,GASREFQTCSVGVYYVAIEK,inactive
22,LLHTTLA,inactive
23,MGHDCHRDW,inactive

row,Substance,amyloid nucleation score
1,DRLPGANICKRRFDMCERKV,inactive
2,WMYHMHENYN,1.18 ± 0.1
3,LLCIFDSRCERLNVLAFRYV,inactive
4,LHCLEFSCVRHSVRY,2.14 ± 0.073
5,CYQSE,inactive
6,HVFPVIAPYRLMLNLKWFVY,inactive
7,IVVQSNHAYTLVRTDSLVWM,1.17 ± 0.11
8,LLGVLDSLMRRFMNHINETG,inactive
9,FKWDGPESQFGPSLMRINGA,1.16 ± 0.19
10,HNLHSYEHRVRTSQAV,inactive
11,MQVILNNVFSTFPLPAGLLR,inactive
12,SSMSSTSALLYMHDNFWCAI,inactive
13,FIFHNHVFFDLSNMFRYYVY,1.92 ± 0.087
14,KPVFYGPIRCFISVCI,1.84 ± 0.09
15,CTFQYSIIYRCYYRYGVVR,inactive
16,TFLALHNNQQLV,inactive
17,IVVEQLHDWDIPMKGTTFRS,inactive
18,RFSIPMLQRCLWLTGPVCPI,inactive
19,VKLSSFCRSNNCWYMRHAFL,inactive
20,YHRTFWSFGSKVFLRVNWCR,inactive
21,VSSFWFCLS,inactive
22,RNSFVLWMVSSV,-0.01 ± 0.45
23,IGDDGFVN,inactive

row,Substance,amyloid nucleation score
1,RPSCMFCPSHAMARLPPVGS,inactive
2,STVSYGVGHQNM,inactive
3,KDLRYTVFEVWDKYWPLTGL,inactive
4,FRKTRIALFLPLTLDF,inactive
5,HILFLYRDLVILVLCSSHPC,inactive
6,SNALYCPWHWLIHQVV,inactive
7,DDGGVTVVWTCGRVCIQMGN,0.399 ± 0.24
8,SCFCMKLSLFYGAIN,0.675 ± 0.51
9,RVTDLFRRLASNYILSSTTA,inactive
10,GVVSSSPMCVNSDREVVEKT,inactive
11,LFVIKGENNSEEYTNVNFWR,0.389 ± 0.23
12,PETMCLGAKRFITGRETREL,0.588 ± 0.14
13,MLSWLYTSGRSRYVILLQP,inactive
14,SHVWFDRGLIETEMSAHRY,inactive
15,MKYYVR,inactive
16,SDLSCSELEYSHGTNTDWVR,inactive
17,VKWTQE,inactive
18,GTVSSYLRTHSKVFSRRFRD,inactive
19,VLRVMCRCDCNTGFAKRESV,inactive
20,HKWLV,inactive
21,YRLAN,inactive
22,YHLSSMVTVWKDSVMLAT,inactive
23,VNRNFILSSLVH,inactive

row,Substance,amyloid nucleation score
1,GVITISREDQYLAVGVIQWI,inactive
2,FVLVWFLRLFDL,inactive
3,HWYVIKLSSNGCTFAVSLRV,inactive
4,DECSAHSSFQLSKSILFGQV,inactive
5,FPHGVHPYS,inactive
6,AVTSVSWLIIIDGALRSVKG,inactive
7,GGMHRAYMESVSDVYLRKWW,0.308 ± 0.21
8,YDDVVVI,inactive
9,WAQLRSTWTSSKAYWLTA,inactive
10,ARKMRKAMYLRGTSALVPCL,inactive
11,PNRVGAVPGG,inactive
12,YLIGRGVMVFNFPWLLHHTN,1.58 ± 0.1
13,NYGNPRRMVCSEYGWESLCK,inactive
14,LYGLVWYTQVGLLNVYSKIY,1.24 ± 0.18
15,SNPHIILID,inactive
16,TVTSSFATLNQVYGPHVFVN,inactive
17,KGYSRYQSVHRSNRELYNQA,-0.563 ± 0.64
18,HLLYYVCRHQQFLWMDVQVE,inactive
19,CLCVTAGYISNTGGHRSWII,inactive
20,RMSLNFNSQPRSLVMGNKYS,inactive
21,WVQPSYRPSCVLYRSNNNNR,inactive
22,LLDDVIRDAMPGSAGRSISG,inactive
23,GKDSCKTTLVSRRLLRLKAP,inactive

row,Substance,amyloid nucleation score
1,ESRMDRCCPSFGMCSLRYQK,inactive
2,NHSSYG,inactive
3,FFSSPFMFPASGATVPQRFQ,inactive
4,LISLPVG,-0.254 ± 0.7
5,SISSYMD,inactive
6,MSHDTFDV,inactive
7,YSSQLILTYDTRL,inactive
8,RSWSETC,inactive
9,LYMSWAKTLFGECNCSHVLL,inactive
10,DTGLAESQGMN,inactive
11,MIYAFVGYGVGTSGGVARES,inactive
12,TRTMAVDTVGCSENRDAAGD,inactive
13,RNPWKFAATRFRLLQNPLVE,-0.185 ± 0.9
14,NLQNGDYITVWTEWEQEACR,inactive
15,LDWLICSWGN,inactive
16,MIYSYTNFGNIWKVCQVMRH,2.39 ± 0.057
17,YCSIGLLCTSCIASVGIWVI,inactive
18,RTTAK,inactive
19,YISSPSIWLCISCEHRGTSA,2.92 ± 0.07
20,IKSERIWDM,inactive
21,DFCLCNIRVFPEYRSHYGFG,inactive
